The supplement of paper PMC7877785
± gives the uncertainty stated by the source.

Test: self-splicing fitness, log relative to wild type (ln ratio); higher = more splicing; Tetrahymena group I intron in knt gene, E. coli kanamycin selection, DiMSum; sequences stand for … in CUCUCU…GGAGGGAAAAGUUAUCAGGCAUGCACCUGGUAGCUAGUCUUUAAACCAAUAGAUUGCAUCGGUUUAAAAGGCAAGACCGUCAAAUUGCGGGAAAGGGGUCAACAGCCGUUCAGUACCAAGUCUCAGGGGAAACUUUGAGAUGGCCUUGCAAAGGGUAUGGUAAUAAGCUGACGGACAUGGUCCUAACCACGCAGCCAAGUCCUAAGUCAACAGAUCUUCUGUUGAUAUGGAUGCAGUUCACAGACUAAAUGUCGGUCGGGGAAGAUGUAUUCUUCUCAUAAGAUAUAGUCGGACCUCUCCUUAAUGGGAGCUAGCGGAUGAAGUGAUGCAACACUGGAGCCGCUGGGAACUAAUUUGUAUGCGAAAGUAUAUUGAUUAGUUUUGGAGUACUCGUGGUCG
Summary of the method: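 Library with all eight P1ex-region intron nucleotides randomised, intron inside the knt kanamycin-resistance gene on pET-22b(+), in E. coli BL21(DE3). Cells grew overnight at 37°C or 30°C on LB agar with or without 25 μg/mL kanamycin (plus 100 μg/mL carbenicillin, 50 μM IPTG, 0.2% rhamnose), in six replicate transformations. Pooled colonies were amplicon-sequenced on Illumina HiSeq 2500. DiMSum fitness is the error-weighted combination of wild-type-normalised replicate fold changes, kanamycin versus none.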

Row | Sequence | self-splicing fitness (ln) (30 °C) | self-splicing fitness (ln) (37 °C)
1 | UCUUAGCAAUAUUACGUUGG | -2.76 ± 0.18 | -2.65 ± 0.19
2 | UCUUAGCAAUAUUACGUUUC | -3.68 ± 0.24 | -2.8 ± 0.29
3 | UGAAAGCAAUAUUACGAAGU | -3.76 ± 0.21 | -2.96 ± 0.23
4 | UGAAAGCAAUAUUACGAAUA | -0.955 ± 0.098 | -0.396 ± 0.12
5 | UGAAAGCAAUAUUACGACCA | -0.558 ± 0.11 | 0.362 ± 0.14
6 | UGAAAGCAAUAUUACGACGU | -1.06 ± 0.065 | -0.131 ± 0.084
7 | UGAAAGCAAUAUUACGAUGC | – | -2.83 ± 0.41
8 | UGAAAGCAAUAUUACGCAAA | -2.12 ± 0.11 | -0.812 ± 0.11
9 | UGAAAGCAAUAUUACGCAGC | – | -1.62 ± 0.22
10 | UGAAAGCAAUAUUACGCAUA | -1.31 ± 0.098 | -0.274 ± 0.11
11 | UGAAAGCAAUAUUACGCCCC | -1.35 ± 0.43 | 0.00457 ± 0.49
12 | UGAAAGCAAUAUUACGCUAC | -3.01 ± 0.28 | -1.75 ± 0.33
13 | UGAAAGCAAUAUUACGCUAU | -3.32 ± 0.23 | -1.54 ± 0.17
14 | UGAAAGCAAUAUUACGCUCA | -1 ± 0.19 | -0.0203 ± 0.25
15 | UGAAAGCAAUAUUACGCUGU | -3.67 ± 0.19 | -1.73 ± 0.17
16 | UGAAAGCAAUAUUACGCUUG | -1.8 ± 0.11 | -1.32 ± 0.13
17 | UGAAAGCAAUAUUACGGACC | -0.608 ± 0.13 | -0.126 ± 0.16
18 | UGAAAGCAAUAUUACGGAUG | -1.05 ± 0.09 | -0.581 ± 0.11
19 | UGAAAGCAAUAUUACGGCCC | -0.866 ± 0.26 | 0.448 ± 0.4
20 | UGAAAGCAAUAUUACGGGAC | -3.12 ± 0.24 | -2.31 ± 0.21
21 | UGAAAGCAAUAUUACGGUGA | -1.27 ± 0.11 | -1.04 ± 0.14
22 | UGAAAGCAAUAUUACGGUGU | -3.55 ± 0.18 | -2.02 ± 0.22
23 | UGAAAGCAAUAUUACGUCGC | -3.49 ± 0.23 | -2.98 ± 0.32
24 | UGAAAGCAAUAUUACGUGAA | -1.3 ± 0.07 | -1.5 ± 0.085
25 | UGAAAGCAAUAUUACGUUGC | -3.54 ± 0.19 | -2.58 ± 0.21

Row | Sequence | self-splicing fitness (ln) (30 °C) | self-splicing fitness (ln) (37 °C)
26 | UGAAAGCAAUAUUACGUUGU | -4.1 ± 0.22 | -2.04 ± 0.12
27 | UGACAGCAAUAUUACGACCG | 0.701 ± 0.16 | 0.698 ± 0.19
28 | UGACAGCAAUAUUACGAGGU | -3.28 ± 0.15 | -2.65 ± 0.21
29 | UGACAGCAAUAUUACGAUCU | -0.412 ± 0.07 | 0.277 ± 0.082
30 | UGACAGCAAUAUUACGCAGA | -1.96 ± 0.15 | -1.11 ± 0.13
31 | UGACAGCAAUAUUACGCAUA | -0.976 ± 0.07 | 0.0999 ± 0.082
32 | UGACAGCAAUAUUACGCCAA | -1.51 ± 0.14 | -0.461 ± 0.12
33 | UGACAGCAAUAUUACGCGGG | -2.59 ± 0.17 | -1.24 ± 0.14
34 | UGACAGCAAUAUUACGCGUC | -4.67 ± 0.38 | -3.62 ± 0.27
35 | UGACAGCAAUAUUACGGAGU | -4.14 ± 0.2 | -2.79 ± 0.13
36 | UGACAGCAAUAUUACGGGAC | -4.05 ± 0.31 | -2.31 ± 0.22
37 | UGACAGCAAUAUUACGUCUC | -4.29 ± 0.34 | -1.47 ± 0.22
38 | UGACAGCAAUAUUACGUGCA | -1.06 ± 0.079 | 0.394 ± 0.11
39 | UGACAGCAAUAUUACGUGCU | -4.32 ± 0.24 | -1.04 ± 0.11
40 | UGACAGCAAUAUUACGUUCA | -0.939 ± 0.076 | 0.0202 ± 0.08
41 | UGACAGCAAUAUUACGUUGG | -2.08 ± 0.12 | -1.82 ± 0.13
42 | UGAGAGCAAUAUUACGAAGU | -3.04 ± 0.26 | -2.55 ± 0.31
43 | UGAGAGCAAUAUUACGACAG | -4.41 ± 0.39 | -3.07 ± 0.34
44 | UGAGAGCAAUAUUACGAGCA | – | 0.211 ± 0.27
45 | UGAGAGCAAUAUUACGAUAU | – | -2.8 ± 0.44
46 | UGAGAGCAAUAUUACGAUCG | -2.1 ± 0.13 | -2.12 ± 0.17
47 | UGAGAGCAAUAUUACGCAUU | -3.34 ± 0.38 | –
48 | UGAGAGCAAUAUUACGCCAA | – | -1.98 ± 0.37
49 | UGAGAGCAAUAUUACGCCGG | -3.37 ± 0.47 | –
50 | UGAGAGCAAUAUUACGCCUA | -1.58 ± 0.22 | -0.073 ± 0.21
